Numbering of substitutions follows the chain as printed. In names and notes the source's numbering stands.
Key:
[1] = target: T1, intact Her2 expressed at the cell surface (human, UniProt P04626 23-1255); experiment: flow cytometry on SKOV3 cells, pH 6.0 vs pH 7.3
T1 construct: whole, on cells; also called Her2 on SKOV3 cells; Her2 on JIMT-1 cells
Protocol: (§1) The cells were washed twice in 200 μL binding buffer, followed by addition of 120 μL 1.0% propidium iodide and samples were then transferred to Multiscreen 96-well plates (60 μm Nylon Mesh, Millipore, Etobicoke, ON) and filtered by centrifugation. The filtrate samples were collected from the Multiscreen receiver plate and transferred to a new V-bottom polypropylene plate at 4° C. Flow cytometric analysis was performed on a BD LSR-Fortessa instrument (BD Biosciences, San Jose, Calif.). […] Median fluorescence intensity (MFI) was reported by analyzing 3000 alive cells per sample with the gating strategy: all cells/singlets/alive cells (PI negative) using BD FACSDiva software (BD Biosciences).
(§2) The designed variants were then reformatted into human IgG1/k FSAs and re-tested on the high-density Her2 cells.

[2] = target: T1, intact Her2 expressed at the cell …; experiment: flow cytometry on SKOV3 cells, pH 6.8 vs pH 7.3
Protocol: as §1, §2

[3] = target: T1, intact Her2 expressed at the cell …; experiment: flow cytometry (FACS) on SKOV3 cells, full-size antibody, pH 5.2
Protocol: (§3) Cells in T-75 flasks were washed twice with D-PBS and then dissociated using Cell Dissociation buffer (Sigma, C5914) at 37° C. […] The cells were then washed twice by centrifugation at 233×g, removal of supernatant by aspiration and resuspending the cells in 200 μL binding buffer at 4° C. Detection reagent, either anti-human Fab or Fc AlexaFluor488-(Fab′)² (Jackson Immunochemicals, West Groove, Pa.), was then added at a final concentration of 10 μg/mL and samples were incubated at 4° C., 1 h. The cells were washed twice in 200 μL binding buffer, followed by addition of 120 μL 1.0% propidium iodide and samples were then transferred to Multiscreen 96-well plates (60 μm Nylon Mesh, Millipore, Etobicoke, ON) and filtered by centrifugation. The filtrate samples were collected from the Multiscreen receiver plate and transferred to a new V-bottom polypropylene plate at 4° C. Flow cytometric analysis was performed on a BD LSR-Fortessa instrument (BD Biosciences, San Jose, Calif.). […] Median fluorescence intensity (MFI) was reported by analyzing 3000 alive cells per sample with the gating strategy: all cells/singlets/alive cells (PI negative) using BD FACSDiva software (BD Biosciences).
as §2

[4] = target: T1, intact Her2 expressed at the cell …; experiment: flow cytometry on SKOV3 cells, apparent KD, pH 6.0; FSA, SKOV3 cells, pH 6.0
Protocol: as §1, §2

[5] = target: T1, intact Her2 expressed at the cell …; experiment: flow cytometry on SKOV3 cells, apparent KD, pH 6.4; FSA, SKOV3 cells, pH 6.4
Protocol: as §1, §2

[6] = target: T1, intact Her2 expressed at the cell …; experiment: flow cytometry on SKOV3 cells, apparent KD, pH 5.6; FSA, SKOV3 cells, pH 5.6
Protocol: as §1, §2

[7] = target: T1, intact Her2 expressed at the cell …; experiment: flow cytometry on SKOV3 cells, apparent KD, pH 5.2; FSA, SKOV3 cells, pH 5.2
Protocol: as §1, §2

[8] = target: T1, intact Her2 expressed at the cell …; experiment: flow cytometry on SKOV3 cells, apparent KD, pH 6.8; FSA, SKOV3 cells, pH 6.8
Protocol: as §1, §2

[9] = target: T1, intact Her2 expressed at the cell …; experiment: flow cytometry (FACS) on SKOV3 cells, full-size antibody, pH 6.0
Protocol: as §3, §2

[10] = target: T1, intact Her2 expressed at the cell …; experiment: flow cytometry on SKOV3 cells, apparent KD, pH 7.3 (Bmax not reached)
Protocol: as §1, §2

[11] = target: T1, intact Her2 expressed at the cell …; experiment: flow cytometry (FACS) on SKOV3 cells, full-size antibody, pH 6.4
Protocol: as §3, §2

[12] = target: T2, Recombinant human Her2 extracellular domain (human, UniProt P04626 23-652); experiment: SPR, Fab over immobilized Her2 ectodomain, pH 7.4, 25 C
T2 construct: extracellular domain; also called Her2 ectodomain; recombinant Her2 ectodomain
Protocol: (§4) Fab-Her2 interactions were analyzed using a Biacore™ T200 (GE Healthcare, Missisauga, ON) surface plasmon resonance instrument. […] Recombinant human Her2 extracellular domain (ThermoFisher Scientific, Burlington, ON) was immobilized onto a CM-5 sensorchip along with a mock-activated blank control surface for referencing. Her2 was diluted to 10 μg/mL in 10 mM NaOAc immobilization buffer pH 4.5 (Biacore) and immobilized to approximately 200 RUs using the Biacore control software Immobilization Wizard with standard NHS/EDC amine coupling. […] Fab samples were injected at 100 4/min with a contact time of 90 s and a 1200-s dissociation using either pH 5.0 or 7.4 running buffer. Sensorgrams were double referenced to the mock-activated blank sensor surface and analyzed for kinetic determination using a 1:1 binding model in BiaEvaluation software v3.1 (GE Healthcare).

[13] = target: T1, intact Her2 expressed at the cell …; experiment: flow cytometry on SKOV3 cells, apparent KD, pH 6.8
[14] = target: T1, intact Her2 expressed at the cell …; experiment: flow cytometry on JIMT-1 cells (low Her2 density), full-size antibody, pH 7.3
[15] = target: T1, intact Her2 expressed at the cell …; experiment: flow cytometry on SKOV3 cells, apparent KD, pH 6.4
[16] = target: T1, intact Her2 expressed at the cell …; experiment: flow cytometry on SKOV3 cells, apparent KD, pH 6.0
[17] = target: T1, intact Her2 expressed at the cell …; experiment: flow cytometry on SKOV3 cells, apparent KD, pH 7.3
[18] = target: T1, intact Her2 expressed at the cell …; experiment: flow cytometry on JIMT-1 cells (low Her2 density), full-size antibody, pH 6.0
[19] = target: T1, intact Her2 expressed at the cell …; experiment: flow cytometry (FACS) on SKOV3 cells, full-size antibody, pH 7.3
[20] = target: T1, intact Her2 expressed at the cell …; experiment: flow cytometry on SKOV3 cells, apparent KD, pH 5.6
[21] = target: T1, intact Her2 expressed at the cell …; experiment: flow cytometry on SKOV3 cells, apparent KD, pH 5.2
[22] = target: T1, intact Her2 expressed at the cell …; experiment: flow cytometry on SKOV3 cells, apparent KD, pH 7.3; remark: listed apart in the source
[23] = target: T2, Recombinant human Her2 extracellular …; experiment: SPR, Fab over immobilized Her2 ectodomain, pH 5.0, 25 C
Protocol: as §4

[24] = target: T1, intact Her2 expressed at the cell …; experiment: flow cytometry on SKOV3 cells, apparent KD, pH 5.2 (Bmax not reached)
[25] = target: T1, intact Her2 expressed at the cell …; experiment: cell-based or functional assay
[26] = target: T1, intact Her2 expressed at the cell …; experiment: flow cytometry on SKOV3 cells, apparent KD, pH 5.2 (Bmax not reached); Fab, SKOV3 cells, pH 5.2 (acidic); approximate, Bmax not reached
Protocol: (§5) The cells were then washed twice by centrifugation at 233×g, removal of supernatant by aspiration and resuspending the cells in 200 μL binding buffer at 4° C. Detection reagent, either anti-human Fab or Fc AlexaFluor488-(Fab′)² (Jackson Immunochemicals, West Groove, Pa.), was then added at a final concentration of 10 μg/mL and samples were incubated at 4° C., 1 h. The cells were washed twice in 200 μL binding buffer, followed by addition of 120 μL 1.0% propidium iodide and samples were then transferred to Multiscreen 96-well plates (60 μm Nylon Mesh, Millipore, Etobicoke, ON) and filtered by centrifugation. The filtrate samples were collected from the Multiscreen receiver plate and transferred to a new V-bottom polypropylene plate at 4° C. Flow cytometric analysis was performed on a BD LSR-Fortessa instrument (BD Biosciences, San Jose, Calif.). […] Median fluorescence intensity (MFI) was reported by analyzing 3000 alive cells per sample with the gating strategy: all cells/singlets/alive cells (PI negative) using BD FACSDiva software (BD Biosciences).

[27] = target: T2, Recombinant human Her2 extracellular …; experiment: SPR, acidic pH 5.0 vs physiological pH 7.4, relative to the parent bH1
Protocol: as §4

[28] = target: T2, Recombinant human Her2 extracellular …; experiment: SPR, pH 5.0 vs pH 7.4
Protocol: as §4

[29] = target: T1, intact Her2 expressed at the cell …; experiment: flow cytometry on SKOV3 cells, pH 5.2, against bH1-P5 and bH1-P5P7 Fabs
Protocol: as §5

B1: bH1-P5P7-FSA (antibody, human IgG1, kappa, V domains shown)
VH: not shown
VL: DIQMTQSPSSLSASVGDRVTITCRASQDIPHSISGYVAWYQQKPGKAPKLLIYWGSYLYSGVPSRFSGSGSGTDFTLTISSLQPEDFATYYCQQHYTTPPTFGQGTKVEIKR
notes: also called bH1-P5P7 full-size antibody
Question: How did the “fold pH-selectivity, pH 6.0 over pH 7.3” value [1] turn out when B1 was run?
Answer: The value was greater than 10 fold.

Question: What about the “fold pH-selectivity, pH 6.8 over pH 7.3” value [2] of the same binder?
Answer: The value was roughly 25 fold.

Question: What about the “EC50 (read off the curve)” value [3] of the same binder?
Answer: The value was roughly 8 nM.

Question: What about the Kd [4] of the same binder?
Answer: The Kd was 9.7 nM.

Question: What about the Kd [5] of the same binder?
Answer: Its Kd is 16 nM.

Question: What about the Kd [6] of the same binder?
Answer: Its Kd is 9.5 nM.

Question: What about the Kd [7] of the same binder?
Answer: The Kd was 8.4 nM.

Question: And the Kd [8]?
Answer: Its Kd is 29.7 nM.

Question: And the “EC50 (read off the curve)” value [9]?
Answer: The value was roughly 10 nM.

Question: What about the Kd [10] of the same binder?
Answer: The Kd was roughly 716 nM.

Question: And the “EC50 (read off the curve)” value [11]?
Answer: The value was roughly 20 nM.

B2: bH1-P6 (H-Y100aH) Fab (Fab, V domains shown)
VH: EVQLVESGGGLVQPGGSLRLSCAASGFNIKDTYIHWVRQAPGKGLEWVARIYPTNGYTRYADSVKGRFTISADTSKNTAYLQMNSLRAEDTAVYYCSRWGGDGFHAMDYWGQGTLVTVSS
VL: B1 VL with H31R
Question: What does the source list for B2?
Answer: Kd [12]: 10 nM; koff [12]: 0.0048 s⁻¹; kon [12]: 480000 M⁻¹ s⁻¹

B3: parental bH1-FSA (full-size human IgG1/k antibody) (antibody, V domains shown)
VH: not shown
VL: B1 VL with H31R
Question: Which Kd [13] does the source give for B3 here?
Answer: Its Kd is 2 nM.

Question: And the “EC50 (read off the curve)” value [14]?
Answer: The value was roughly 2 nM.

Question: What about the Kd [15] of the same binder?
Answer: Its Kd is 2.9 nM.

Question: And the “EC50 (read off the curve)” value [3]?
Answer: Its value is roughly 3 nM.

Question: What about the Kd [16] of the same binder?
Answer: Its Kd is 2.9 nM.

Question: And the Kd [17]?
Answer: The Kd was 4.1 nM.

Question: And the “EC50 (read off the curve)” value [18]?
Answer: The value was roughly 2 nM.

Question: And the “EC50 (read off the curve)” value [19]?
Answer: Its value is roughly 4 nM.

Question: And the “EC50 (read off the curve)” value [9]?
Answer: Its value is roughly 3 nM.

Question: And the Kd [20]?
Answer: Its Kd is 1.5 nM.

Question: And the Kd [21]?
Answer: Its Kd is 2.6 nM.

Question: And the “EC50 (read off the curve)” value [11]?
Answer: The value was roughly 3 nM.

B4: parental bH1-Fab (Fab, V domains shown)
VH: not shown
VL: B1 VL with H31R
Question: With B4 as the binder, how does the Kd [12] read?
Answer: The Kd was 3 nM.

Question: What about the Kd [22] of the same binder?
Answer: The Kd was 21.3 nM.

Question: And the Kd [23]?
Answer: Its Kd is 13 nM.

Question: And the Kd [24]?
Answer: Its Kd is roughly 41 nM.

B5: bH1-P7 (L-R30aH) Fab (Fab, V domains shown)
VH: not shown
VL: B1 VL
Question: Which Kd [12] does the source give for B5 here?
Answer: Its Kd is 5.7 nM.

Question: What about the Kd [23] of the same binder?
Answer: The Kd was 17 nM.

B6: bH1-P8 (L-S30bH) Fab (Fab, V domains shown)
VH: not shown
VL: B1 VL with H31R, S32H
Question: Which Kd [12] does the source give for B6 here?
Answer: The Kd was 3.4 nM.

Question: And the Kd [23]?
Answer: The Kd was 9.9 nM.

B7: bH1-P5P8-FSA (antibody, human IgG1, kappa, V domains shown)
VH: not shown
VL: B1 VL with H31R, S32H
notes: also called bH1-P5P8 full-size antibody
Question: How did the “EC50 (read off the curve)” value [3] turn out when B7 was run?
Answer: The value was roughly 10 nM.

Question: What about the Kd [5] of the same binder?
Answer: Its Kd is 15.1 nM.

Question: And the Kd [7]?
Answer: Its Kd is 12.3 nM.

Question: What about the “internalization of FITC conjugated antibody into BT474 cells, pH 6.4” value [25] of the same binder?
Answer: The value was 2 fold over negative control.

Question: What about the Kd [8] of the same binder?
Answer: Its Kd is 21.7 nM.

Question: And the “EC50 (read off the curve)” value [9]?
Answer: The value was roughly 10 nM.

Question: And the Kd [10]?
Answer: Its Kd is roughly 290 nM.

Question: And the “EC50 (read off the curve)” value [11]?
Answer: The value was roughly 20 nM.

B8: bH1-P5P7 (H-R58H,L-R30aH) Fab (Fab, V domains shown)
VH: not shown
VL: B1 VL
notes: also called bH1-P5P7-Fab
Question: What does the source list for B8?
Answer: Kd [26]: ~178 nM; ΔΔΔGbinding [27]: -1.93 kcal/mol; Kd [12]: 530 nM; koff [12]: 0.021 s⁻¹; kon [12]: 40000 M⁻¹ s⁻¹; Kd [23]: 90 nM; koff [23]: 0.0057 s⁻¹; kon [23]: 70000 M⁻¹ s⁻¹; fold stronger binding at acidic pH than at physiological pH [28]: ~6 fold

B9: bH1-P5P8 (H-R58H,L-S30bH) Fab (Fab, V domains shown)
VH: not shown
VL: B1 VL with H31R, S32H
notes: also called bH1-P5P8-Fab; bH1-P5P8 Fab
Question: What does the source list for B9?
Answer: Kd [26]: ~93 nM; ΔΔΔGbinding [27]: -1.91 kcal/mol; fold stronger affinity than bH1-P5 and bH1-P5P7 [29]: ~2 fold; Kd [12]: 290 nM; koff [12]: 0.011 s⁻¹; kon [12]: 40000 M⁻¹ s⁻¹; Kd [23]: 50 nM; koff [23]: 0.0037 s⁻¹; kon [23]: 90000 M⁻¹ s⁻¹; fold stronger binding at acidic pH than at physiological pH [28]: ~6 fold
